Results from patent publication US20120329716A1 (UNIVERSITY OF MANITOBA, published 2012).
Values belong to the binder of their own block, whether it stands above or below them.

How the values were obtained:
[1] = molecular target: T1, Purified human recombinant renin (human, UniProt P00797 67-406); assay: cell-based or functional assay
T1 sequence (looked up): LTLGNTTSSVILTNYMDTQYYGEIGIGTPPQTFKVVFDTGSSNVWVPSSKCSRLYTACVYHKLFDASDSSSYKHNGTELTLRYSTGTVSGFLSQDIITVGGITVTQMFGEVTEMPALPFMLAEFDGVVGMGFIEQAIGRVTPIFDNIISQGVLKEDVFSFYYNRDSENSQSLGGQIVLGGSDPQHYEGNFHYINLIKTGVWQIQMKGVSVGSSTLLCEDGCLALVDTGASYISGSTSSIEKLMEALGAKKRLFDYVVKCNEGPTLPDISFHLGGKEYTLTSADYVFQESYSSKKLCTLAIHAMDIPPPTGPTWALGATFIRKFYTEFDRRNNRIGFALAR

[2] = molecular target: T2, Renin substrate 1 (Arg-Glu(EDANS)-Ile-His-Pro-Phe-His-Leu-Val-Ile-His-Thr-Lys(dabcyl)-Arg)
T2 chain: REIHPFHLVIHTKR

RENIN INHIBITION % [1]: 9.3%
Binder: WPHT [SEQ ID NO. 18]

RENIN INHIBITION % [1]: 24%
Binder: SNILEAA [SEQ ID NO. 20]

RENIN INHIBITION % [1]: 22.2%
Binder: YPRE [SEQ ID NO. 19]

RENIN INHIBITION % [1]: 32.4%
Binder: YKKSVSSESDPF [SEQ ID NO. 26]

RENIN INHIBITION % [1]: 43.5%
Binder: AHPVAIN [SEQ ID NO. 22]

RENIN INHIBITION % [1]: 6.73%
Binder: NFLAGPSD [SEQ ID NO. 25]

RENIN INHIBITION % [1]: 57.5%
Binder: RSPD [SEQ ID NO. 17]

RENIN INHIBITION % [1]: 4.85%
Binder: WLP [SEQ ID NO. 13]

RENIN INHIBITION % [1]: 15.4%
Binder: RAAP [SEQ ID NO. 14]

RENIN INHIBITION % [1]: 76.2%
Binder: ADMFPF [SEQ ID NO. 23]

RENIN INHIBITION % [1]: 28%
Binder: TNPFPF [SEQ ID NO. 24]

RENIN INHIBITION % [1]: 21.2%
Binder: HPGAG [SEQ ID NO. 16]

RENIN INHIBITION % [1]: 36%
Binder: YAGVSLI [SEQ ID NO. 21]

RENIN INHIBITION % [1]: 43.4%
Binder: WMP [SEQ ID NO. 15]

B1: Purified human recombinant renin (protein)
chain: T1 sequence (looked up)
Michaelis-Menten constant (Km) in the absence of peptide fractions [2]: 3.8 µM
Michaelis-Menten constant (Km) in the presence of peptide fraction T4 [2]: increased to 6.3 and 6.1 µM, respectively
Michaelis-Menten constant (Km) in the presence of peptide fraction T5 [2]: increased to 6.3 and 6.1 µM, respectively
